# Reference: PMC12525004, “Bacillus subtilis DinG 3′⟶5′ Exo(ribo)nuclease: A Helpmate to Mitigate Replication Stress” (International Journal of Molecular Sciences, 2025)
# T1: DinG D10A E12A (Bacillus subtilis, UniProt P54394 1-931, D10A;E12A)
# T1 sequence: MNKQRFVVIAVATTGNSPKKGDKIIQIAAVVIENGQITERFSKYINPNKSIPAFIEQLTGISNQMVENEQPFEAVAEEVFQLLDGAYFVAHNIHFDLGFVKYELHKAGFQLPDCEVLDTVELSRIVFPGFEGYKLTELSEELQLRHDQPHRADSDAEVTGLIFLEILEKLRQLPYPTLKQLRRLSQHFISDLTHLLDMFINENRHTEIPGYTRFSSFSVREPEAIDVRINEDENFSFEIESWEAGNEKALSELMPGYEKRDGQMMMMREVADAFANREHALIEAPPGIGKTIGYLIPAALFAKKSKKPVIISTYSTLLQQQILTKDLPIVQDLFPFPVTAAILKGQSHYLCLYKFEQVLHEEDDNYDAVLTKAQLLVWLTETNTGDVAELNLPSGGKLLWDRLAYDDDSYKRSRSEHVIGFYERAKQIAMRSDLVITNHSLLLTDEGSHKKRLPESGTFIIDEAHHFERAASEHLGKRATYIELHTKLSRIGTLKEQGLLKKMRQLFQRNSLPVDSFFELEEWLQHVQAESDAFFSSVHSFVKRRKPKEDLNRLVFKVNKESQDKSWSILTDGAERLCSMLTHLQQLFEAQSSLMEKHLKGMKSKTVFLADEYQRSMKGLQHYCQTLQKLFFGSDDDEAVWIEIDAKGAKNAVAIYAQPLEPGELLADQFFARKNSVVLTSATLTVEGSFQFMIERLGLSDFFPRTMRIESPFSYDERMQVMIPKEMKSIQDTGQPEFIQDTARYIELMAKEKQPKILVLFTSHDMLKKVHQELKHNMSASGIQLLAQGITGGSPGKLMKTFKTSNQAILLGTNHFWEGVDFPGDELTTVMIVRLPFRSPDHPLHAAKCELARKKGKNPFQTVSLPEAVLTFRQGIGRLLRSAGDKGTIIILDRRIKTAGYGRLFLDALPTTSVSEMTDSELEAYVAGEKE
# T2: DinG K290A (Bacillus subtilis, UniProt P54394 1-931, K290A)
# T2 sequence: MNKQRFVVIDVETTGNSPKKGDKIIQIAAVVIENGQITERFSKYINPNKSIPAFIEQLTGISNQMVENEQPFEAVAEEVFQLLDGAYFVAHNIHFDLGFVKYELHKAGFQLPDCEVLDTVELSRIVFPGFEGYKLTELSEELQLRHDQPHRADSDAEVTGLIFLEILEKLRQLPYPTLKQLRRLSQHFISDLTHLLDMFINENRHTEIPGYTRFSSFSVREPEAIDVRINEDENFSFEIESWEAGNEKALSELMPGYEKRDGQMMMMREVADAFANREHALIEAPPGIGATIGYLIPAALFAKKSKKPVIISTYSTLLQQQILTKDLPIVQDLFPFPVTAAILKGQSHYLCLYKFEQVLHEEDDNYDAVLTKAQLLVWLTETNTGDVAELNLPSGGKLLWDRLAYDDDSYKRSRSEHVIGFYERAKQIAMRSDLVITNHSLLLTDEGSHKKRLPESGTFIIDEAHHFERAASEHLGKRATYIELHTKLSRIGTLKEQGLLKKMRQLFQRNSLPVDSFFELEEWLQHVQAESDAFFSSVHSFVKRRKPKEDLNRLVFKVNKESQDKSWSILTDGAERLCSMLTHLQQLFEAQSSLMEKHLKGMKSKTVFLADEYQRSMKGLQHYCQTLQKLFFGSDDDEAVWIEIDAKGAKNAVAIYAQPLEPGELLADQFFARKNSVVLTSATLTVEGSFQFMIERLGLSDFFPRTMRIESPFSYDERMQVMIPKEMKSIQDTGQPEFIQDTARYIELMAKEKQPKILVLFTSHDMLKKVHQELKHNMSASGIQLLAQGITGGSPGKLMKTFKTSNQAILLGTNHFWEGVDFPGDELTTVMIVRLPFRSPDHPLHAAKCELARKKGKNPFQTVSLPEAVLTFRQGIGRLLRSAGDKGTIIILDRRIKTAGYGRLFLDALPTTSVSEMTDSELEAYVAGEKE
# Columns and labels:
# Conditions in all cases: protein: recombinant; tags: none stated (pET3a, untagged); label: 5'-32P; single strand
# DinG D10A E12A [1] = target: T1, DinG D10A E12A; experiment: EMSA; 3 mM Mg2+; C1, C2 and well complexes; EMSA, buffer D (composition not in material; 3 mM MgCl2, or 2 mM EDTA instead), 0.5 nM DNA, 37 °C, 10 min (text: 5 min), 15% native PAGE in TBE 1X; pH and salt
# DinG D10A E12A [2] = target: T1, DinG D10A E12A; experiment: EMSA; 2 mM EDTA, no metal; text names lssDNA38, Methods and Fig S4 legend give lssDNA45; EMSA, buffer D (composition not in material; 3 mM MgCl2, or 2 mM EDTA instead), 0.5 nM DNA, 37 °C, 10 min (text: 5 min), 15% native PAGE in TBE 1X; pH and salt
# DinG K290A = target: T2, DinG K290A; experiment: EMSA; 2 mM EDTA, no metal; Kapp; text names lssDNA38, Methods and Fig S4 legend give lssDNA45; EMSA, buffer D (composition not in material; 3 mM MgCl2, or 2 mM EDTA instead), 0.5 nM DNA, 37 °C, 10 min (text: 5 min), 15% native PAGE in TBE 1X; pH and salt
binder,measurement,setting,value
"GTACGTATTCAAGATACCTCGTACTCTGTACTGACTCGGATCCTA (ssDNA, biotin-T at position 44 (second from 3' end)) [3'-Biotin gamma32P-lssDNA45]",binding signal,DinG D10A E12A [1],~37 fold lower affinity than wt DinG
same,binding signal,DinG D10A E12A [2],~2 fold lower affinity than its Mg2+-bound state
same,apparent K (half saturation),DinG K290A,~1.1 nM
